Assay: yeast display, Sf9 membrane polyspecificity reagent, FACS + sequencing; frameworks hold sequencing errors
Summary of the method: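 Nanobodies came from a synthetic yeast display library in Saccharomyces cerevisiae BJ5465, induced with galactose for 36–48 hours and stained for 1 hour at 4 °C with 10% biotinylated, detergent-solubilized Sf9 membrane reagent. Cells were enriched on streptavidin microbeads and then FACS-sorted, with low and high (top ~1%) gates set on anti-HA fluorescence for expression and streptavidin fluorescence for reagent binding. Each polyreactivity label reflects the gate a clone came from. Genes were amplified by colony PCR, sequenced by MiSeq 2 × 250 and filtered by CDR length.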

Row | Sequence | polyreactivity (PSR sort gate)
1 | QVQLVESGGGLVQAGGSLRLSCAASGSIFTVYAMGWYRQAPGKERELVAAINWSDGDTYYADSVKGRFTISRDNAKNTVYLQMNSLKPEDTAVYYCAAEGIYLILWYGYVEYDYWGQGTQVTVSS | low polyreactivity
2 | QVQLVESGGGLVQAGGSLRLSCAASGRTFYTYAMGWYRQAPGKDREFVAVISGRGARTYYADSVKGRFTISRDNAKNTVYLQMNSLKPEDTAVYYCAAVPPRKDYQHMDYWGQGTQVTVSS | low polyreactivity
3 | QVQLVESGGGLVQEGGSLRVSCAASGSTLIRNVMVRYRQAPGKERELVAVITYGVGSTYYADSVKGRFTISRDNAKNTVYLQMNSLKPEDTAVYYCNKDPLVFDYWGQGTQVTVSS | low polyreactivity
4 | QVQLVESGGGLVQAGGSLRLSCAASGRTLARNAMGWYRQAPGKERELVASINGRTTRTYYADSVKGRFTISRDNAKNTVYLQMNSLKPEDTAVYYCAADPPGYVYGKRYYWGQGTQVTVSS | high polyreactivity
5 | QVQLVESGGGLVQAGGSLRLSSSASGRIFVYYAMGWYRQAPGKERELVAAITYSVDSTYYADSVKARFTISRDNAKNTVYLQMNSLKPEDTAVYYCATDVDWAYGYQYEYWGQGTQVTVSS | low polyreactivity
6 | QVQLVESGGGLVQAGGSLRLSCAASGIIFVRYAMGWYRQAPGKERELVAAISWSGGSTYYADSVKGRFTISRDNAKNTVYLQMNSLKPEDTAVYYCAADSHRTRGDARYYYWGQGTQVTVSS | high polyreactivity
7 | QVQLVESGGGLVQAGGSLRLSCAASGITFVGNAMGWYRQAPGKERELVAGIRGNGGSTYYADSVKGRFTISRDNAKNTVYLQMNSLKPEDTAVYYCAAAAYYADFDYWGQGTQVTVSS | low polyreactivity
8 | QVQLVESGGGLVQAGGSLRLSCAPSGIIAKHNAMGWYRQAPGKERELVAAITSGSITNYADSVKGRFTISRDNAKNTLYLQMNSLKPEDTAVYYCAKRVDAYGWWGRRSGVLSDYWGQGTQVTVSS | low polyreactivity
9 | QVQLVESGGGLVQAGGSLRLSCAASGSIFFYAMGWYRQARGKERELVADITYTGGSKYADSVKGRFTISRDNAKNTVYLQMNSLKPEDTAVYYCAKLDGGLFDYWGQGTQVTVSS | low polyreactivity
10 | QVQLVESGGGLVQAGGSLRLSCAASGRIFQYYTMGWNRQAPGKERELVAAITYSGGDTRYADSVKGRFTISRDTAKNTVYLQMNSLKPEDTAVYYCAADYFDQYQYGVWTYGYWGQGTQVTVSS | low polyreactivity
11 | QVQLVESGGGLFQAGGSLRLSCAASGITFAQYAMGWYRQAPGKDRELVAVISSGGSTNYADSVKGRFTISRDNAKNTVYLQMNSMKPEDTAVYYCNADEAAPVYSYYYWGQGTQVTVSS | low polyreactivity
12 | QVQLVESGGGLVQAGGSLRLSCAASGSTFYPYAMGWYRQAPGKEREFVAGISRSGGTTYYADSVKGRFTISRDNAKNTVYLQMNSLKPEDTAVYYCAVQIPYVYWSYDYWGQGTQVTVSS | low polyreactivity
13 | LVQLVESRGGLVQAGGSLRLSCAASGRTFAWYAMGWYRPAPGKERELVAAISNVGSTYYADTVKGRFTISRDNAKNTVYLQMNSLKPEDTAVYYCNPDAVSTDGREYWGQGTQVTVSS | low polyreactivity
14 | QVQLVESGGGLVQAGGSLRLSCAASGRTFYQYAMGWYRQAPGKERELVAAITRRGGSTYYADSVKGRFTISRDNAKNTVYLQMNSLKPDDTAVYYCNAQYKKGFDYWGQGPQVTVSS | high polyreactivity
15 | QVQLVESGGGLVQAGGSLRLSCAASGSIFVKNAMGWYRQAPGKEREFVAAITTSGGSTNYADSVKGRFTISLDNAKNTVYLQMNSLKPEDTAVYYCNTDIFPAAYDYWGQGTQVTVSS | low polyreactivity
16 | QVQLVESGGGLVQAGGSLRLSCAASGFTFRGYAMGWYRQAPGKERELVAAITWSGGSTYYADSVKGRFTISRDNAKYTVYLQMNSLKPEDTAVYYCNAYYASGYRQYDYWGQGTQVTVSS | high polyreactivity
17 | QVQLVESGGGLVQAGGSLRLSCAASGRNFYLYGMGWYRQAPGKERELVAAIDWSDGSTYYADSVKGRFTISRDNAKNTVYLQMNSLKPEDTAVYYCAADGWAAWLYDYWGQGTQVTVSS | low polyreactivity
18 | QVQLVESGGGLVQAGGGLRLSCAASGRTFTYNAMGWYRQAPGKERELVAAITYDGGGTYADSVKGRFTISRDNAKNTVYLQMNSMKPEDSAVYYCNKGPDPGSFYDYWGQGTQVTVSS | low polyreactivity
19 | QVQLEDSGGGLLQAGGSLRLSCAASGRILYLYTMGWYRQAPGKERELVAAISRGGSTYYADSVKGRFTISRDNAKNTVYLQMNSLNPEDTAVYYCSADARGYQFNYWGQGTQVTVSS | high polyreactivity
20 | QVQLVESGGGLVQAGGSLRLSCAASGRTFGGYAMGWYRQAPGKERELVAAISRSGGSTRYADSVKGRFTISRDNAKNTVYLQMNSLKPEDTAVYYCAARQKYEILMEYWGQGTQVTVSS | high polyreactivity
21 | QVQLVESGGGLVQAGGSLRLSCAASGSIFFYYAMGWYRQAPGKERELVADITSGGTTYYADSVKGRFTISRDNAKNTVYLQMNSQKPEDTAVYYCNAGLYPGQRPDYTNYSSYYWGQGTQVTVSS | low polyreactivity
22 | QVQLVESGGGLVQAGGSLRLSCAASGRTFGLYAMGWYRQAPGKERELVAAISWGGGRTYYADSVKGRFTISRDNAKNTVYLQMNSLKPEDNAVYYCNAVYSPRYYVGGYDYWGQGTQVTVSS | high polyreactivity

Row | Sequence | polyreactivity (PSR sort gate)
23 | QVQLVESGGGLVQAGGSLRLSCAASGFTFRNYAMGWYIQAPGKERELVATISWSGGSTYYADSVKGRFTISRDNAKNTVYLQMNSLKPEDTAVYYCAAKTILWKYYPYYYVTYDYWGQGTQVTVSS | high polyreactivity
24 | QVQLVESGGGLVQAGGSLRLSCAASGRIFWLNAMGWYRQAPGKEREFVASITYGSDSTYYADSVKGRFTISRDNAKNTVYLHMNSLKPEDTAVYYCNREGWHYGPYGYWGQGTQVTVSS | low polyreactivity
25 | QVQLVESGGGLVQAGGSLRLSCAASGFIFNYNAMGWYRQAPGKERELVAAISGTGVRTYYADSVKGRFTISRDNAKNTVYLQMNSLKPEDTAVYYCNAYYGYIPVSGYRNDYWGQGTQVTVSS | low polyreactivity
26 | QVQLVESGVGLVQAGGSLRLSCASSGSIFAYNTMGWYRQAPGKEREFVAAISWLGGSTYYADSVKGRFTISRDNAKNTVYLQMNSLKPEDTAVYYCNARYRTTFYTRRYDYWGQGTQVTVSS | low polyreactivity
27 | QVQLVESGGGLVQAGGSLRLSCAASGSIFYHYAMGWYRQAPGKERELVAGITSSGDRTHYADSVKGRFTISRDNAKNSVYLQMNSLKPEDTAVYYCNTATIHGTAYDYWGQGTQVTVSS | low polyreactivity
28 | QVQLVESGGGLVQAGGSLRLTCAASGFIFPRYAMGWYRQAPGKERELVAAISYSGGSTYYADSVKGRFTISRDNAKNTVYLQMNSLKPEDTAVYYCNKDFPPQGQLRNMYYWGQGTQVTVSS | high polyreactivity
29 | QVQLVESGGGLVQAGGSLRLSCAASGLTFYSYAMGWYRQAPGKERELVAAISKRGTNTFYADSAKGRFTISRDNAKNTVYLQMNSLKPEDTAVYYCAVDLSDSDYYWGQGTQVTVSS | low polyreactivity
30 | QVQLVESGGGLVQAGGSLRLTCAASGYIFGIYAMGWYRQAPGKERELVAAITTSSGSTYADSVKGRFTISRDNAKNTVYLQMNSLKPEDTAVYYCAADGYLYSYPGHRRASYDYWGQGTQVTVSS | low polyreactivity
31 | QVQLVESGGGLVQAGGSLRISSAASGRIFTPYVMGWYRQAPGKERELVADINLSGDSTSYADSVKGRFTITRDNAKNTVYLQMNSLKPEDTAVYYCNADSYIYVGNDQYDYWGQGTQVTVSS | low polyreactivity
32 | QVQLVESGGGLVQAGGSLRLSCAASGSTFPYYAMGCYRQAPGKERELVAAISWSDANTYYADSVKGRFTISRDNAKNTVYLQMNSLKPEDTAVYYCAAEPYDRYVPYTGYGLNYWGQGTQVTVSS | low polyreactivity
33 | QVQLVESGGGLVQAGGSLRLSCAAFGSIFGYNAMGSYRQAPGKEREFVAAISWSGGRTYYADSVKGRFTISRDNAKNTVYLQMNSLKPEDTAVYYCAAPSRPAPRFDYWGQGTQVTVSS | low polyreactivity
34 | QVQLVESGGGLVQAGGRLRLSCAASGSTFVTNYMGRYRQAPGKERELVAAISSGTSTNYADSVKGRFTISRDNAKNTVYLQMNSLTREDTPVYYCAADSLKRYDYWGQGTQVTVSS | low polyreactivity
35 | QVQLVESGGGLVQAGGSLRLSCAASGFIFFYYAMGWYRQAPGKERELVAAITKNGGRTYYADSVKGRFTISRDNAKNTVYLQMNSLKPEDTAVYYCNKVKGQGGYYGYDYWGQGTQVTVSS | high polyreactivity
36 | QVQLVESGGGLVQAGGSLRLSCAASGSIFSPYAMGWYRQAPGKQRELVAAISKTGGSTYYADSVKGRFTISRDNAKNTVYLQMNSLKPEDTAVYYCATQGPRWVRHFDYWGQGTQVTVSS | low polyreactivity
37 | QVQLVESGGGLVQAGGSLRLSCAASGSIFYLYAMGWYRQAPGKERELVAGIRYRGGSTYYADSVKGRFTISRDNAKNTVYLQMNSLKPEDTAVYYCAAEYGDGRYWSYDYWGQGTQVTVSS | high polyreactivity
38 | QVQLVESGGGLVQAGGSLPLSCAASGRTFGSYVMRWYRQAPGKERELVATISRRGGTTYYADSVKGRFTISRDNAKNTVYLQMNSLKPEDTAVYYCAAKYFATRYDYWGQGTQVTVSS | high polyreactivity
39 | QVQLVESGGGLVQAGGSLRLSCAASGFIYKINAMGWYRQAPGKERELVARITSGGRTNYADSVKGRFTISRDNAKNTVYLQMDSLKPEDTAVYYCAARYLAYGPTGYLYGYNYWGQGTQVTVSS | high polyreactivity
40 | QVQLVESGGGLVQAGGSLRLSCAASGITFLFYVMGRYRQERGKERELVSTINSDDTTYYADSVKGRFTISRDNAKNTVYLQMNCLKPEDTAVYYCAADTWLWYGFDHWGQGTQVTVSS | high polyreactivity
41 | QVQLVESGGGLVQAGGSLRLSCAASGFTFYTNAMGWYRPAPGKEREFVAAISFSGGTYYADSVKGRFTISRDNAKNTVYLQMNSLKPEDTAVYYCNARYPRYYRGVIQYDYWGQGTQVTVSS | low polyreactivity
42 | QVQLVESGGGLVQAGGSLRLSCAASGSIFFSNAMGWYRQAPGKERELVAAITSTGGSTYYADSVKGRFTISRDNAKNTVYLQMNSLKPEDTAVYYCAAASRRGYYYWGQGTQVTVSS | high polyreactivity
43 | QVQIVESGGGLVQAGGSLRLSCAASGRTLALYTMGWYRQAPGKERELVAAINWSGTSTYYADSVKGRNTISRDNAKNTVYLQINILKPEDTAVYYCNADGSAYIEDGYDYWGQGTQVTVSS | low polyreactivity
